B1: 7N5S oligo (dsDNA)
DNA 1: GGGGCCCCTTCCCCA
DNA 2: CTGGGGAAGGGGCCC
B2: 7N5T oligo (dsDNA)
DNA 1: AGGCCCCTTCCCCAC
DNA 2: TGTGGGGAAGGGGCC

Molecular target: ZBTB7A ZF1-4 (370-500) pXC2222 (Homo sapiens, UniProt O95365 370-500)
Assay: X-ray crystallography

Sequence of ZBTB7A ZF1-4 (370-500) pXC2222 (O95365 370-500): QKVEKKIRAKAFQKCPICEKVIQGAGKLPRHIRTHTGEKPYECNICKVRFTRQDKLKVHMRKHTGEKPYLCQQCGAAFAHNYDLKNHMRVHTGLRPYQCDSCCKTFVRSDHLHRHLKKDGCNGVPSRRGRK

Row | Binder | binding result
1 | B1 | binds
2 | B2 | binds

From PMC8553545
